Laboratory results from PMC6683498, “The conserved actinobacterial transcriptional regulator FtsR controls expression of ftsZ and further target genes and influences growth and cell division in Corynebacterium glutamicum”.
Blank lines part the entries; values can stand above or below the molecule they belong to.

Legend:
[1] = molecular target: T1, FtsR-Strep (Corynebacterium glutamicum ATCC13032) (UniProt Q8NQJ2); experiment: competition; conditions: EMSA: 10 mM Tris-HCl pH 7.5, 30 mM NaCl, 1.5 mM Na2EDTA, room temperature, 30 min; 15% native PAGE in 1x TBE (competition EMSA: 10% gel)
T1 sequence: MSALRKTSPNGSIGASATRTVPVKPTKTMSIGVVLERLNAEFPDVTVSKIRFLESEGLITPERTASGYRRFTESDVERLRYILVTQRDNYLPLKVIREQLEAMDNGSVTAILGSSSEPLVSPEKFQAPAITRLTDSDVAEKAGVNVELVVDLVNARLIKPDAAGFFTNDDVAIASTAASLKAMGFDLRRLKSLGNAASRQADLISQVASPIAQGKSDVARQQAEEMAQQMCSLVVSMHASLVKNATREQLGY

[2] = molecular target: T1, FtsR-Strep (Corynebacterium glutamicum ATCC13032); experiment: EMSA; conditions: EMSA: 10 mM Tris-HCl pH 7.5, 30 mM NaCl, 1.5 mM Na2EDTA, room temperature, 30 min; 15% native PAGE in 1x TBE (competition EMSA: 10% gel)
[3] = molecular target: FtsR-Strep (FtsR, Cg1631, of Corynebacterium glutamicum ATCC13032 with C-terminal StrepTag-II) (Corynebacterium glutamicum ATCC13032); experiment: SEC; affinity-purified FtsR-Strep on Superdex 200 Increase 10/300 GL, buffer W (50 mM Tris-HCl, 250 mM NaCl, pH 7.5), 0.6 mL/min; compared to standard proteins
FtsR-Strep = molecular target: T2, FtsR-Strep (Corynebacterium glutamicum ATCC13032, UniProt Q8NQJ2 1-252); experiment: EMSA; 1 uM DNA; complete shift at 2-fold molar excess of dimer; EMSA: 10 mM Tris-HCl pH 7.5, 30 mM NaCl, 1.5 mM Na2EDTA, room temperature, 30 min; 15% native PAGE in 1x TBE (competition EMSA: 10% gel); conditions: protein: recombinant; chain copies: 2; blunt
T2 sequence: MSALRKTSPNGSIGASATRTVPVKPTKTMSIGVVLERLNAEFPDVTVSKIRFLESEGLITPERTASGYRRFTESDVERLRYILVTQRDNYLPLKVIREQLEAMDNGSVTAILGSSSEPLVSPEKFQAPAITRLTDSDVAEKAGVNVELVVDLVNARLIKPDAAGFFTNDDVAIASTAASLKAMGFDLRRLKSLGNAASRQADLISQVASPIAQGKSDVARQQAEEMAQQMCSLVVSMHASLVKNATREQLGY

Molecule: AGTGCTTCCTGCGGTTATTGCTGTAATCAACGCAATTAAAGCGCAAGATGCGCAGATGACAGAAAGTATCCAGGTAGTGGAAGCTCCGGATCAATTTGATATCTTGCTGAAAATGAATGATGGCCGGGAAATCTACTGGGGATCCTCGGAAAACAACCACGATAAAGCGGTGGCAATGTCGACTGTTTTGAAGCGGGAAGGCCAACGTTGGAACATTAGCTCACCCTCAATGGTGACAGTCCGCTAAAGTGGCTGGGTAG (double strand)
binding [1]: no binding

Molecule: AGTTCCGGTTCACCCGTTTCCACAACGCGTTTGCCCACCTCAACAACCCTAAAGTAAAGGTTGAGGGTAGCGACACGCCGCTGTAAATGTCCGACACATTGACGTGTTTTTCGCACAAGATATATGTCAGCCGGATTAACACTTTTAGATAAGCTCTCACAGTGCTGACTGCTTATCTGAGATGAAAATAAAAGCAAAATTTTTTTTAGTATCAACTCTTCGAAAGGCGAGACATCGACAATGACCTCACCGAACAACTACCTCGCCAAGA (double strand) [ftsZ promoter 271-bp fragment, Cy3]
binding [2]: binds

Molecule: AGTTCCGGTTCACCCGTTTCCACAACGCGTTTGCCCACCTCAACAACCCTAAAGTAAAGGTTGAGGGTAGCGACACGCCGCTGTAAATGTCCGACACATTGACGTGTTTTTCGCACAAGATATATGTCAGCCGGATTAACACTTTTAGATAAGCTCTCACAGTGCTGACTGCTTATCTGAGATGAAAATAAAAGCAAAATTTTTTTTAGTATCAACTCTTCGAAAGGCGAGACATCGACAATGACCTCACCGAACAACTACCTCGCCAAGA (double strand) [ftsZ promoter 271-bp fragment, unlabeled specific competitor]
binding [1]: binds

stoichiometry N [3]: 2
Molecule: FtsR-Strep (FtsR, Cg1631, of Corynebacterium glutamicum ATCC13032 with C-terminal StrepTag-II) (natural protein)

B1: ftsZ promoter 30-bp oligo (dsDNA)
DNA 1: ACAACCCTAAAGTAAAGGTTGAGGGTAGCG
DNA 2: CGCTACCCTCAACCTTTACTTTAGGGTTGT
binding result (FtsR-Strep): binds
